Legend:
[1] = Effect of GST-tag removal on specific activity; type: biochemical; details: 4° C. overnight
Text: N. crassa RNA purification, reverse-transcription PCR, cloning, and N. crassa LAD expression are described in this example. […] The reverse transcription-PCR product was subcloned into pGEX-4T-3 vector (Amersham Biosciences) using EcoRI and NotI restriction sites and was transformed into Escherichia coli BL21(DE3). This construct (pGEX-lad1) encoded N. crassa LAD as an N-terminal glutathione S-transferase (GST)-tagged fusion with a thrombin cleavage site. Cell lysates of isopropyl-β-D-thiogalactopyranoside (IPTG) induced cultures of these cells were prepared, analyzed by SDS-PAGE, and assayed for LAD activities. The construct produced soluble GST-tagged N. crassa LAD at ˜16% of the total soluble cellular proteins (FIG. 1), which was then purified in a single step with a GST-Bind kit (Novagen) according to manufacturer's protocol. […] Protein concentrations were determined by the Bradford method and by using an estimated extinction coefficient (San Diego Supercomputer Center Biology Workbench) of 35.3 mM-1 cm-1 at 280 nm with similar results. The purity of the protein was analyzed by an SDS-PAGE gel stained with Coomassie brilliant blue (FIG. 1). […]
To determine the effect of removal of the GST-tag, the purified LAD was incubated with and without thrombin at 4° C. overnight. […] It was determined that removal of the GST-tag enhanced activity by about 65%. […]

[2] = F59 mutant kinetic analysis, substrate L-arabinitol; type: biochemical; details: 25° C., 50 mM Tris pH 8.0, NAD+ 2 mM
Description: (§1) Initial rates were determined using a Varian Cary 100 Bio UV-visible spectrophotometer (Varian) at 25° C. in 50 mM Tris (pH 8.0). […] This is the first reported detection of NADP^+ utilization by LAD, although it is still considered a strongly NAD^+-dependent enzyme. Kinetic measurements with substrate L-arabinitol and cofactor NAD^+ were taken in a 5-by-5 matrix format, with substrate and cofactor concentrations varied from below their Km to 10-fold higher than their Km. The kinetic data were analyzed with a modified version of Cleland's program (Cleland, W. W. (1979) Statistical analysis of enzyme kinetic data, Methods Enzymol 63, 103-138.). Vmax and Km for both L-arabinitol and NAD^+ were obtained by fitting the data to a sequential ordered mechanism with NAD^+ binding first, based on the proposed mechanism for sorbitol dehydrogenase (Lindstad et al. (1992) The kinetic mechanism of sheep liver sorbitol dehydrogenase, Eur J Biochem 210, 641-647.) v=VmaxAB/(KiaKB+KAB+KBA+AB) (EQ. 1)
(§2) Activity assays were run for three mutants of N. crassa LAD (F59A, F59S, and F59Y) to study the effect of mutation of this active site, putative substrate binding residue homologous to tyrosine in other SDHs. […]

[3] = Kinetic parameters of LAD from various source organisms; type: biochemical; details: for Specific activity: purified N. crassa LAD
Description: Initial rates were determined using a Varian Cary 100 Bio UV-visible spectrophotometer (Varian) at 25° C. in 50 mM Tris (pH 8.0). […] Kinetic measurements with substrate L-arabinitol and cofactor NAD^+ were taken in a 5-by-5 matrix format, with substrate and cofactor concentrations varied from below their Km to 10-fold higher than their Km. The kinetic data were analyzed with a modified version of Cleland's program (Cleland, W. W. (1979) Statistical analysis of enzyme kinetic data, Methods Enzymol 63, 103-138.). Vmax and Km for both L-arabinitol and NAD^+ were obtained by fitting the data to a sequential ordered mechanism with NAD^+ binding first, based on the proposed mechanism for sorbitol dehydrogenase (Lindstad et al. (1992) The kinetic mechanism of sheep liver sorbitol dehydrogenase, Eur J Biochem 210, 641-647.) v=VmaxAB/(KiaKB+KAB+KBA+AB) (EQ. 1)

[4] = Temperature dependence of LAD activity; type: biochemical
Description: The optimal temperature of activity was determined by assaying LAD activities at temperatures ranging from 12 to 65° C. […] (FIG. 2A). At higher temperatures, the enzyme inactivates rapidly, and at lowered temperatures, the rate increases with temperature according to the Arrhenius equation. Utilizing the Arrhenius equation to fit the data from 12 to 30° C., the energy of activation for L-arabinitol oxidation by N. crassa LAD was determined to be 49 kJ/mol. […] Thermal inactivation of N. crassa LAD was studied by incubating at 50° C. in 50 mM Tris (pH 8.0), with samples removed at various times and assayed for activity in saturating substrate conditions.

[5] = F59 mutant kinetic analysis, substrate xylitol; type: biochemical; details: 25° C., 50 mM Tris pH 8.0, NAD+ 2 mM
Description: as §1, §2

[6] = F59 mutant kinetic analysis, substrate adonitol; type: biochemical; details: 25° C., 50 mM Tris pH 8.0, NAD+ 2 mM
Description: as §1, §2

[7] = pH rate profile of LAD activity; type: biochemical; details: universal buffer, 2 mM NAD+, 200 mM L-arabinitol
Description: Activity was measured at pH values between 7.0 and 11.0 under saturating concentrations of NAD+ (2 mM) and L-arabinitol (200 mM) in a universal buffer (50 mM morpholineethanesulfonic acid (MES)/50 mM Tris/50 mM glycine). The pH range for N. crassa LAD activity was large, with >25% of the activity occurring with pH values of 7.0 to 11.0 (FIG. 2C). The pH optimum was around pH 9.5, and >60% of the activity remained in the pH span from 8.0 to 10.5.

[8] = Thermal inactivation and storage stability of LAD; type: physicochemical

N. crassa LAD: NAD+-dependent L-arabinitol 4-dehydrogenase from Neurospora crassa, 363 residues, SEQ ID NO: 1, recombinantly expressed in E. coli
increase of specific activity of thrombin-cleaved LAD over GST-tagged LAD [1]: about 65% | kcat (mean ± SD) [2]: 1,210 ± 30 min^−1 | kcat ([3]; N. crassa LAD): 1,206 min^−1 | Km ([3]; N. crassa LAD, read-out: Km,L-arabinitol): 16 mM | Km ([3]; N. crassa LAD, read-out: Km,NAD+): 0.174 mM | specific activity relative to H. jecorina LAD purified from S. cerevisiae heterologous expression ([3]; greater): ~20 fold | Specific activity [3]: about 31 U/mg | Specific activity ([3]; listed as N. crassa): 31 U/mg | energy of activation for L-arabinitol oxidation ([4]; Arrhenius fit of data from 12 to 30° C.): 49 kJ/mol | optimum temperature of activity ([4]; assayed from 12 to 65° C., 200 mM L-arabinitol, 2 mM NAD+): 45-55 °C | kcat (mean ± SD) [5]: 970 ± 40 min⁻¹ | kcat (mean ± SD) [6]: 1,080 ± 30 min^−1 | Km ([6]; read-out: Km (mean ± SD)): 35 ± 3 mM | activity at pH values of 7.0 to 11.0 [7]: > 25% | activity remaining in the pH span from 8.0 to 10.5 [7]: > 60% | pH optimum [7]: ~9.5 pH | stability to repeated freezing (in words) [8]: quite stable and does not markedly lose activity when frozen repeatedly | activity retained ([8]; 45° C., after 4 hr): ~60% | storage stability (in words) ([8]; room temperature and 4° C.): retained activity at room temperature for longer than one month and at 4 °C for several months

— patent publication US8114638B2, “Arabinitol dehydrogenase from Neurospora crassa” (The Board of Trustees of the University of Illinois, priority 2007, dated 2012)
